This is an account of results in PMC2854692.

The test has as its target Glucagon receptor (UniProt P47871).
Chain of UniProt P47871 (P47871 26-477): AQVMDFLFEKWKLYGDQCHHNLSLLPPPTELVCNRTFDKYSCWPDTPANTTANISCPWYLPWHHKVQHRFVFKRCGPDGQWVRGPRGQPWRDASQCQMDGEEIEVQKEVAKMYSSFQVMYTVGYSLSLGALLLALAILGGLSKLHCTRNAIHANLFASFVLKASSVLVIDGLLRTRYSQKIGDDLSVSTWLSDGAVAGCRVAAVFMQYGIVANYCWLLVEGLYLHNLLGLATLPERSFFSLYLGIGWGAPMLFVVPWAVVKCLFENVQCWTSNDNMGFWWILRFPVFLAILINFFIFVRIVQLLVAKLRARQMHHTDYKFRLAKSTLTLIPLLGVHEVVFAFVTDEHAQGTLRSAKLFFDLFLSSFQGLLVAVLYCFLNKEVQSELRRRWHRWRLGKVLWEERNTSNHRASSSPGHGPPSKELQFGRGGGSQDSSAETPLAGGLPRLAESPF

B1: Gcg-XTEN (ligand)
chain: HSQGTFTSDYSKYLDSRRAQDFVQWLMNTGGTSTPESGSASPGTSPSGESSTAPGTSPSGESSTAPGSTSSTAESPGPGSTSESPSGTAPGSTSSTAESPGPGTSPSGESSTAPGTSTPESGSASPGSTSSTAESPGPGTSPSGESSTAPGTSPSGESSTAPGTSPSGESSTAPG
For B1, the potency in the Ca2+-flux assay (FLIPR) on a transfected GcgR cell line, relative to unmodified glucagon, molar basis (% of the potency of unmodified glucagon) was 15.
